Test results taken from patent US20130273029A1 (Novartis, published 2013).
Positions count from the first letter of the chain named.

B1: MOR14535 (antibody, human IgG1, kappa, V domains shown)
VH: EVQLVQSGAEVKKPGESLKISCKGSGYSFTTTWVAWVRQMPGKGLEWMGIIYPGLSDTIYSPSFQGQVTISADKSISTAYLQWSSLKASDTAMYYCARVHIIQPPSAWSYNAMDVWGQGTLVTVSS
VL: DIQMTQSPSSLSASVGDRVTITCRASQSISTYLNWYQQKPGKAPKLLIYGASNLQSGVPSRFSGSGSGTDFTLTISSLQPEDFATYYCQQSITELFTFGQGTKVEIKR
notes: tested as IgG
B2: MOR14536 (antibody, human IgG1, kappa, V domains shown)
VH: B1 VH with T30S, T31N, T32Y, V34I, L55Q
VL: B1 VL
notes: tested as IgG
B3: MOR12509 (antibody, human IgG1, kappa, V domains shown)
VH: B1 VH with E1Q, T31N, T32S, L55N
VL: DIQMTQSPSSLSASVGDRVTITCRASQSITHYLNWYQQKPGKAPKLLIFGASNLQSGVPSRFSGSGSGTDFTLTISSLQPEDFATYYCQQAFVDPSTTFGQGTKVEIKR
notes: tested as IgG
B4: MOR12616 (antibody, human IgG1, kappa, V domains shown)
VH: B1 VH with E1Q, T31N, T32S, L55N
VL: B1 VL with Y49F
notes: tested as IgG
B5: MOR12510 (antibody, human IgG1, kappa, V domains shown)
VH: B1 VH with E1Q, T31N, T32S, L55N
VL: B1 VL with Y49F, S91D, T93D, L95P, F96W
notes: tested as IgG
B6: MOR13870 (antibody, human IgG1, kappa, V domains shown)
VH: B1 VH with E1Q, T30S, T31N, T32Y, V34I, L55T
VL: B1 VL with Y49F
notes: tested as IgG
B7: MOR13871 (antibody, human IgG1, kappa, V domains shown)
VH: B1 VH with E1Q, T30S, T31N, T32Y, V34I, L55S
VL: B1 VL with Y49F
notes: tested as IgG

What follows are binders tested against T1, HER3 on JTC12 cells (assay: FACS titration on JTC12 cells).
T1 construct: whole, on cells

EC50 [nM]	Binder
65.1	B1
1.36	B2

Each binder was assayed against T2, Mu HER3: CD33-[Murine HER3, residues 20-643]-TAG (murine, UniProt Q61526 20-643) (assay: SET, IgG vs soluble HER3-Tag).
T2 construct: also called mu HER3-Tag; not shown: C-terminal TAG (e.g., FLAG TAG)
Protocol: (§1) Affinity determination in solution was essentially performed as previously described (Friguet et al., (1985) J Immunol Methods 77:305-19). In order to improve the sensitivity and accuracy of the SET method, it was transferred from classical ELISA to ECL based technology (Haenel et al., (2005) Anal Biochem 339:182-84).
(§2) The data was evaluated with XLfit software (ID Business Solutions) applying customized fitting models.
(§3) Antibody affinity was determined by solution equilibrium titration (SET) as described above. The results are summarized in Table 3 and example titration curves for MOR12616 and MOR12925 are contained in FIG. 1.

T2 sequence (Q61526 20-643): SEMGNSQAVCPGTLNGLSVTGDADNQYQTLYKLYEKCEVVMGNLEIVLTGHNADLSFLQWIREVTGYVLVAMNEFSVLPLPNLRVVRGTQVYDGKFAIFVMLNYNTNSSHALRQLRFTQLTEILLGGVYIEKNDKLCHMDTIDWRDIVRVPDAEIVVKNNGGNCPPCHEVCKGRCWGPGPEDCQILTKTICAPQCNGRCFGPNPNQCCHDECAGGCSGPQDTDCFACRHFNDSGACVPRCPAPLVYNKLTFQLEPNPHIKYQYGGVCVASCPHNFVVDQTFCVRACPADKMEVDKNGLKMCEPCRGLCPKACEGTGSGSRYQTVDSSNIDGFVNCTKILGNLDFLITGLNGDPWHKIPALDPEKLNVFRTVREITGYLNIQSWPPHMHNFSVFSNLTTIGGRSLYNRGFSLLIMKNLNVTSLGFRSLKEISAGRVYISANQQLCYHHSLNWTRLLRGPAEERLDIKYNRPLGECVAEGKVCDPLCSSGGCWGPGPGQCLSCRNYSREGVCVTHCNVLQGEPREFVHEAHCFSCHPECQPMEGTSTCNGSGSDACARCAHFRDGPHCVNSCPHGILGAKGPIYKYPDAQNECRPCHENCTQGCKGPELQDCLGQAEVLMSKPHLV

Kd [nM]	Binder
0.25	B3
0.041	B4
0.125	B1
0.029	B2
0.2	B5

The binders below were run against T3, Hu HER3: CD33-[Human HER3, residues 20-640]-TAG (human, UniProt P21860 20-640) (assay: SET, IgG vs soluble HER3-Tag).
T3 construct: also called hu HER3-Tag; HER3-Tag; not shown: C-terminal TAG (e.g., FLAG TAG)
Protocol: as §1, §2, §3

T3 sequence (P21860 20-640): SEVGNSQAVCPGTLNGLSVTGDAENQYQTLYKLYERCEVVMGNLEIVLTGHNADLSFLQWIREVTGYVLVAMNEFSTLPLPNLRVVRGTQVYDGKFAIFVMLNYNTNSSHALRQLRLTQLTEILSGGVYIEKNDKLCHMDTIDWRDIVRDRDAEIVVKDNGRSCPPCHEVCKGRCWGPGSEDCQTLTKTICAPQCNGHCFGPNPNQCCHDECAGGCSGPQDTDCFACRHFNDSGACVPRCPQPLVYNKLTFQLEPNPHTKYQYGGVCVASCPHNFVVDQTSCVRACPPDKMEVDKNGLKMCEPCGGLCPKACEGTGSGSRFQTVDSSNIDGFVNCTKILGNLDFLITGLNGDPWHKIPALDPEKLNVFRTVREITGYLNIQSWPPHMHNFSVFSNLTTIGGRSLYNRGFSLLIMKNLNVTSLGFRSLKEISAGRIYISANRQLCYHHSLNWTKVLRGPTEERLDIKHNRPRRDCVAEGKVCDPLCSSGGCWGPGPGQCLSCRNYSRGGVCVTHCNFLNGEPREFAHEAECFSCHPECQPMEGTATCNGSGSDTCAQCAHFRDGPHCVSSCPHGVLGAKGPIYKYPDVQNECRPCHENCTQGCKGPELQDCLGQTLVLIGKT

Kd [nM]	Binder
0.078	B3
0.02	B4
0.173	B6
0.235	B1
0.072	B2
0.193	B7
0.055	B5

The binders below were run against T4, Cyno HER3: CD33-[Cyno HER3, residues 20-643]-TAG (cynomolgus, UniProt G7PIG5 20-643) (assay: SET, IgG vs soluble HER3-Tag).
T4 construct: also called cy HER3-Tag; not shown: C-terminal TAG (e.g., FLAG TAG)
Protocol: as §1, §2, §3

T4 sequence (G7PIG5 entry or part of it): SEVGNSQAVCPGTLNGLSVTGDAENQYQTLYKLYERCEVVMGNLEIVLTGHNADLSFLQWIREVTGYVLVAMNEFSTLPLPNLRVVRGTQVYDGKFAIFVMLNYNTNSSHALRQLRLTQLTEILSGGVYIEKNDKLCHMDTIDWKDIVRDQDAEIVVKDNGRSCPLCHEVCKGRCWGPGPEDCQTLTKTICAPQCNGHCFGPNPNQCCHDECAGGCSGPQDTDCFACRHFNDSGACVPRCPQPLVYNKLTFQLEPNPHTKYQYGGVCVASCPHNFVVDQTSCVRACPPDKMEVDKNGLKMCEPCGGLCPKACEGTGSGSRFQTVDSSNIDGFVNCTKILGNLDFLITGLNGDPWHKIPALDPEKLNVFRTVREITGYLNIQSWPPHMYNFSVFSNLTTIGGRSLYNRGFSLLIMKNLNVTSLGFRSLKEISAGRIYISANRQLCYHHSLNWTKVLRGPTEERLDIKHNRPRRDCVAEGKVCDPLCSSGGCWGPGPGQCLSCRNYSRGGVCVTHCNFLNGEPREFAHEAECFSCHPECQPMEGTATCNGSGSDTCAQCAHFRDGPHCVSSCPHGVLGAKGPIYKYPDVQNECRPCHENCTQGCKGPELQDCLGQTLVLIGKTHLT

Kd [nM]	Binder
0.32	B3
0.074	B4
0.215	B1
0.044	B2
0.4	B5

The binders below were run against T5, Rat HER3: CD33-[Rat HER3, residues 20-643]-TAG (rat, UniProt Q62799 20-643) (assay: SET, IgG vs soluble HER3-Tag).
T5 construct: also called ra HER3-Tag; not shown: C-terminal TAG (e.g., FLAG TAG)
Protocol: as §1, §2, §3

T5 sequence (Q62799 20-643): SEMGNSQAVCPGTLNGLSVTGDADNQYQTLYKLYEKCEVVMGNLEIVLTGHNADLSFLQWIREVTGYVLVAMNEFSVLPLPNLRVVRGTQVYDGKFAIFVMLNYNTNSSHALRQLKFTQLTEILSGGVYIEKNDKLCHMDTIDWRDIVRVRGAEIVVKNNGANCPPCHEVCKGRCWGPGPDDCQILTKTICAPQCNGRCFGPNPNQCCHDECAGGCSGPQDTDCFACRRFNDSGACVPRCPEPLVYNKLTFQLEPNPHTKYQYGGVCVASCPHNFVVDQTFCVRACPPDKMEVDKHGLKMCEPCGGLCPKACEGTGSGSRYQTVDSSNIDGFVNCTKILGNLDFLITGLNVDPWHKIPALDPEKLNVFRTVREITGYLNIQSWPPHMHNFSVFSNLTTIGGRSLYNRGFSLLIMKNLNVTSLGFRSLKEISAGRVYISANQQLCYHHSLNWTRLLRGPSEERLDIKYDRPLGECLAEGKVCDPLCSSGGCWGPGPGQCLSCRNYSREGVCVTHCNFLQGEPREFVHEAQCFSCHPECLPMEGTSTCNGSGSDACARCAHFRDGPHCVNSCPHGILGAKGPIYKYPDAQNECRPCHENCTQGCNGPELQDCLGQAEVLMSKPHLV

Kd [nM]	Binder
0.48	B3
0.122	B4
0.315	B1
0.064	B2
0.75	B5

The binders below were run against T6, Human HER3, endogenous, on human cancer cell lines (SK-Br-3, MCF7, BT-474) (human, UniProt P21860 20-1342) (assay: cell-based or functional assay).
T6 sequence (P21860 20-1342): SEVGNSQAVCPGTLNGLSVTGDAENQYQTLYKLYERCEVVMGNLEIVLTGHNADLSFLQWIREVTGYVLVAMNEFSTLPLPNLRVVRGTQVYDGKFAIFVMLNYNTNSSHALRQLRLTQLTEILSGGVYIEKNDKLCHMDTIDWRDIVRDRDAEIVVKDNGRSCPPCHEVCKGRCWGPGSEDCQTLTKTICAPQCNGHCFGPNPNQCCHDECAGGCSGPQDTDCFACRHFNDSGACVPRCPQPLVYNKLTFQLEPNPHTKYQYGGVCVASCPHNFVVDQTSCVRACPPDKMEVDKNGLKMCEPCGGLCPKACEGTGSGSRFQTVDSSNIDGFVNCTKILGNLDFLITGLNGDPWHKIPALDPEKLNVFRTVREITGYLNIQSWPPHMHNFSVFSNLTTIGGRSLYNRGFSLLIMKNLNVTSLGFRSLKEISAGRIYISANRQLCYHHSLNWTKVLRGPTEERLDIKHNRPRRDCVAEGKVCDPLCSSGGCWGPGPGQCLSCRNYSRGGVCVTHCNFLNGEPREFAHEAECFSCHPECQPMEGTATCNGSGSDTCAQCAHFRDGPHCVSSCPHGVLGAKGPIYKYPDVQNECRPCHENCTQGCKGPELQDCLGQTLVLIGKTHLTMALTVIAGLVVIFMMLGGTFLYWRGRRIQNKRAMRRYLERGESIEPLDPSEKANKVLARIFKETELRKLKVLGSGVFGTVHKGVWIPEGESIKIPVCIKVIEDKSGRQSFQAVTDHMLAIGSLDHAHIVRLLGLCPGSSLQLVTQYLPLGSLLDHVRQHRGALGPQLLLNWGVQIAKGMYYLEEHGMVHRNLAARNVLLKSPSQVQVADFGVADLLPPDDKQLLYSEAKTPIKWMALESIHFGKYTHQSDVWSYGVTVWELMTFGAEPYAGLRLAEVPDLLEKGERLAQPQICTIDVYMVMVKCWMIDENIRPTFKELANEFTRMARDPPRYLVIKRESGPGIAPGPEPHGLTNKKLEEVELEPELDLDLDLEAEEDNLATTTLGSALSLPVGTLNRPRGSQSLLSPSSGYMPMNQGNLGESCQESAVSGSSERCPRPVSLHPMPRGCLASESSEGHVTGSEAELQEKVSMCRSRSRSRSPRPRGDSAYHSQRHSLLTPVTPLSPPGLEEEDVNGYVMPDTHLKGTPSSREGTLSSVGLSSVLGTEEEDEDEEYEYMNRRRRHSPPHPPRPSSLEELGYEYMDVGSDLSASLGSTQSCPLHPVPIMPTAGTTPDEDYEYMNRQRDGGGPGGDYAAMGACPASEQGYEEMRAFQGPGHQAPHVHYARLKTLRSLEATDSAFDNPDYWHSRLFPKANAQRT

MCF7 proliferation % inhibition [%]	MCF7 proliferation IC50 [nM]	SK-Br-3 proliferation % inhibition [%]	SK-Br-3 proliferation IC50 [nM]	BT-474 proliferation % inhibition [%]	BT-474 proliferation IC50 [nM]	Binder
24	1.47	45	0.572	–	–	B3
32	0.415	48	0.123	45	0.635	B4
48	0.061	39	1.14	43	0.539	B6
–	–	66	0.271	–	–	B1
–	–	56	0.181	–	–	B2
58	–	32	1.29	43	1	B7
25	0.483	44	0.355	–	–	B5

Biological target: T6, Human HER3, endogenous, on human cancer …
Test: cell-based or functional assay
Remark: another data set of the same source

BT-474 pAkt (S473) % inhibition [%]	BT-474 pAkt (S473) IC50 [pM]	MCF7 pAkt (S473) % inhibition [%]	MCF7 pAkt (S473) IC50 [pM]	SK-Br-3 pAkt (S473) % inhibition [%]	SK-Br-3 pAkt (S473) IC50 [pM]	Binder
78	316	80	442	89	88	B4
77	424	–	–	91	76	B6
83	1630	–	–	93	97	B7

Biological target: T6, Human HER3, endogenous, on human cancer …
Test: cell-based or functional assay
Remark: another data set of the same source

BT474 pHER3 % inhibition [%]	MCF7 pHER3 % inhibition [%]	MCF7 pHER3 IC50 [pM]	SK-Br-3 pHER3 % inhibition [%]	SK-Br-3 pHER3 IC50 [pM]	BT474 pHER3 IC50 [pM]	Binder
84	70	712	76	483	–	B3
58	76	245	75	142	436	B4
66	71	84	81	110	535	B6
–	73	533	76	231	–	B1
–	83	379	76	239	–	B2
68	74	43	83	105	608	B7
85	73	450	78	157	34	B5

These binders were tested against T7, HER3 D4: CD33-[Human HER3, residues 496-643]-TAG (human, UniProt P21860 496-643) (assay: ELISA on coated recombinant protein, antibody titrated (Example 7); readout on the sheet is Fluorescence Units).
T7 construct: also called D4-Tag; isolated domain 4; not shown: C-terminal TAG (e.g., FLAG TAG)
T7 sequence (P21860 496-643): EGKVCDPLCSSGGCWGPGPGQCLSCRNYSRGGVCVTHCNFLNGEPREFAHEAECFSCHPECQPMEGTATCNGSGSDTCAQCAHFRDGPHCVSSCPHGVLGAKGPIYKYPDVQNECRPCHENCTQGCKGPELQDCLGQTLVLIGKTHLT

binding result	Binder
no binding (tested: 10 µg/ml)	B4

Each binder was assayed against T8, HER3 D2: CD33-[Human HER3, residues 185-329]-TAG (human, UniProt P21860 185-329) in the same assay as above.
T8 construct: also called D2-Tag; isolated D2 protein; not shown: C-terminal TAG (e.g., FLAG TAG)
T8 sequence (P21860 185-329): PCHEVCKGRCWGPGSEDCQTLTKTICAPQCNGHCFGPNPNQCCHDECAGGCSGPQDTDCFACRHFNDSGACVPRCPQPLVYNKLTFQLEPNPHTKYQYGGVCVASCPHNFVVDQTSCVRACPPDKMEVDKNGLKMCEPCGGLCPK

EC50 (read off the curve) [µg/mL]	Binder
~0.2	B4

Each binder was assayed against T9, HER3 D3-4: CD33-[Human HER3, residues 330-643]-TAG (human, UniProt P21860 330-643) in the same assay as above.
T9 construct: also called D3-4-Tag; isolated domains 3-4; not shown: C-terminal TAG (e.g., FLAG TAG)
T9 sequence (P21860 330-643): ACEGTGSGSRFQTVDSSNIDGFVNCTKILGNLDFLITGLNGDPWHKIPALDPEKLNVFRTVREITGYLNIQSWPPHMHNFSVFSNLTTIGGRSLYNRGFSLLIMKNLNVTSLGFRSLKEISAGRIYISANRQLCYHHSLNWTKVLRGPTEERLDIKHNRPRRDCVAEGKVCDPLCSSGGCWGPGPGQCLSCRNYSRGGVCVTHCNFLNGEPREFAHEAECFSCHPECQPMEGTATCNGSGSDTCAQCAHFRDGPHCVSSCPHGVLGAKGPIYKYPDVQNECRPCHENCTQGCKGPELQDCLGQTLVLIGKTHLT

binding result	Binder
no binding (tested: 10 µg/ml)	B4

What follows are binders tested against T3, Hu HER3: CD33-[Human HER3, residues … (assay: binding ELISA on human HER3 (WT), IgG titrated (Example 7); fluorescence 435/530 nm).

EC50 (read off the curve) [nM]	Binder
~0.1	B4

Each binder was assayed against T6, Human HER3, endogenous, on human cancer … (assay: FACS titration on SK-Br-3 cells).
Protocol: The binding of antibodies to endogenous human antigen expressed on human cancer cells was accessed by FACS. In order to determine antibody EC₅₀ values SK-Br-3 cells were harvested with accutase and diluted to 1×10⁶ cells/mL in FACS buffer (PBS/3% FBS/0.2% NaN₃). 1×10⁵ cells/well were added to each well of a 96-well plate (Nunc) and centrifuged at 210 g for 5 minutes at 4° C. before removing the supernatant. Serial dilutions of test antibodies (diluted in 1:4 dilution steps with FACS buffer) were added to the pelleted cells and incubated for 1 hour on ice. The cells were washed and pelleted three times with 100 μL FACS buffer. PE conjugated goat anti-human IgG (Jackson ImmunoResearch) diluted 1/200 with FACS buffer were added to the cells and incubated on ice for 1 hour. Additional washing steps were performed three times with 100 μL FACS buffer followed by centrifugation steps at 210 g for 5 minutes at 4° C. Finally, cells were resuspended in 200 μL FACS buffer and fluorescence values were measured with a FACSArray (BD Biosciences). The amount of cell surface bound anti-HER3 antibody was assessed by measuring the mean channel fluorescence.
The ability of the identified antibodies to bind HER3 expressing cells was determined by calculating EC₅₀ values for their binding to the HER2 amplified cell line SK-Br-3 (see FIG. 2 and Table 4).

EC50 [nM]	Binder
2.08	B1
1.27	B2

Each binder was assayed against T10, HER3 on B16-F10 cells (UniProt Q61526 20-1339) (assay: FACS titration on B16-F10 cells).
T10 construct: whole, on cells

EC50 [nM]	Binder
0.524	B1
0.625	B2
